Measured values as given in patent publication US10842793B2, “Inhibitors of the unconventional secretion of fibroblast growth factor 2 (FGF2) by tumor cells and uses thereof” (Universität Heidelberg, priority 2016, dated 2020).

How the values were obtained:
[1] = biological target: T1, SH1 kinase domain of Tec (Homo sapiens, UniProt P42680); assay: Steady-state fluorescence polarization, FGF2 binding to SH1 kinase domain of Tec; conditions: fluorescein-labeled FGF2 50 nM, 1:1 stoichiometry, ± SEM; read-out: dissociation constant FGF2 / SH1 kinase domain of Tec
T1 construct: yielding a homogenous preparation of the SH1 kinase domain; His (N, cleaved yes); made in house; host or cells: Tec SH1: SF9 insect cells (baculovirus); FGF2: E. coli
T1 sequence (P42680 370-623 limits assumed): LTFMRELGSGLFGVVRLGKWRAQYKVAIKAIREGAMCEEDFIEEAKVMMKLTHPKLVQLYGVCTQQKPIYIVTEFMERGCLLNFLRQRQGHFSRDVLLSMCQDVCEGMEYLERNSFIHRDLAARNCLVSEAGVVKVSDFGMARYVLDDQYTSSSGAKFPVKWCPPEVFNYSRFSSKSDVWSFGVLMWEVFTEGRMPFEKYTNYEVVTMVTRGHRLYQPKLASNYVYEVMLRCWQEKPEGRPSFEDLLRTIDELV
Method: (§1) (A) Fluorescence polarization experiments were conducted using fluorescein-labeled FGF2. FGF2 (at a constant concentration of 50 nM) was incubated with increasing concentrations (0 to 20 μM) of the various Tec constructs indicated. Following incubation for 3 hours at room temperature, changes in polarization (ΔPolarization in mP) were recorded. A non-linear regression analysis was conducted (GST-NΔ173 Tec: black circles, n=8; SH1 kinase domain: green squares, n=5; GST-PH-TH: blue triangles, n=3; GST-SH3-SH2: red triangles, n=3; GST: orange rhombuses, n=5) and standard errors of the mean (SEM) were calculated. As detailed in Experimental Procedures, assuming a binding stoichiometry of 1:1, dissociation constants were calculated to be 1.434 μM±0.55 (SEM) for GST-NΔ173 Tec and 1.032 μM±0.29 (SEM) for the SH1 kinase domain of Tec. FIG. 2A discloses “His6” as SEQ ID NO: 2.
(§2) To determine binding affinity between Tec kinase and FGF2, steady-state fluorescence polarization was used. […] Based on the extinction coefficients of both His-tagged FGF2 and fluroscein-5-maleimide, the degree of labeling was determined to be 30%. […] Absolute protein concentrations were determined based upon the extinction coefficients calculated for each protein and measuring absorption at 280 nm using a NanoDrop 1000 spectrophotometer. […]

[2] = biological target: T2, GST-NΔ173 Tec (Homo sapiens, UniProt P42680); assay: Steady-state fluorescence polarization, FGF2 binding to GST-NΔ173 Tec; conditions: fluorescein-labeled FGF2 50 nM, 1:1 stoichiometry, ± SEM; read-out: dissociation constant FGF2 / GST-NΔ173 Tec
T2 construct: made in house; host or cells: Tec: SF9 insect cells (baculovirus); FGF2: E. coli
T2 sequence (P42680 174-631, stated change not applied): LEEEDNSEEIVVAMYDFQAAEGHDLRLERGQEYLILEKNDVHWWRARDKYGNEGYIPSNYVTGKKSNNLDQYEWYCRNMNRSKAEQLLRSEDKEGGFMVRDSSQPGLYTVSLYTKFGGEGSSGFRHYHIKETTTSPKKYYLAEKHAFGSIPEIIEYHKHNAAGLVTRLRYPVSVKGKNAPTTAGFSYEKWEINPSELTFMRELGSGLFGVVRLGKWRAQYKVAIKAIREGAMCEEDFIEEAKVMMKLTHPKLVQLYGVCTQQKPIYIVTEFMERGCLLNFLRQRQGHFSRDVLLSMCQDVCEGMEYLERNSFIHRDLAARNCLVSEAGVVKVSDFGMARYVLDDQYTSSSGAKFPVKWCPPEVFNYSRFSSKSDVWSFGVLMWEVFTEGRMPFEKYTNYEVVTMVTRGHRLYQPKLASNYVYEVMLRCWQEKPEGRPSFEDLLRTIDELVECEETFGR
Method: as §1, §2

**Q.** With “FGF2: recombinant fibroblast growth factor 2, His-tagged and fluorescein-labeled for fluorescence polarization” as the substance, how does the Kd [1] read?
**A.** Its Kd is 1030 nM.

**Q.** What about the Kd [2] of the same substance?
**A.** The Kd was 1430 nM.
